Assay: label from the status in PepcDB records

Sequence | protein production
MADALKIGIAGLGTVGASLVRIIQQKSNELAVTCGRPITITAVSARDKTRDRGVDLSAVAWFDRPEDLAEKGDIDVFVELMGGAEGAANVSVRAALQRGLHVVTANKALLAYHGVELATIAEEKGSLLNFEAAVAGGIPVIKALRESLTGNAVSRIYGIMNGTCNYILTKMEKEGLSFAECLKEAQRLGYAEADPAFDIEGNDTAHKLAILTTLAFGNRIAADDIYLEGITNISIEDIHAAAELGYRIKLLGVAQRTETGIEQRVHPTMVPVDSVIAQVDGITNAVAIESDVLGELLMVGPGAGGNATASSVLGDIADIAKSQPGAQRVPVLGHPAKALEPYRKAQMQSHEGGYFIRLTVLDRTGVFASVATRMAENHISLESIVQRSTQHLAPSHHQTIILVTHATMEESVRKAVASIRSEGYLFGEPQVIRIERPKEEA | failed
MADDIRILMCPPDHYDVDYVINPWMEGNIHKSSQERAVEQWKKLHQTIKECAIVDLVKPAKGWPDMVFTANAGLVLGENVVLSRFYHKERQGEEPYFKAWFEENGFTVYELPQDLPFEGAGDALFDREGRWLWAGYGFRSELDSHPYIAKWLDTEVVSLRLIDERFYHLDTCFCPLSGGYLLYYPPAFDAYSNRVIEMRIPPEKRIIVEELDAVNFACNAVNVNDIIIMNLVSRTLKEKLAEAGFKVRETPLTEFLKAGGAAKCLTLRVTEPILPDVHATVSIESRVIRMEGHLLDAGILNQALDLVVENSGSFRVLNFNLGVERNSTSSAEVRVSAPSHQIMEEIMTELIDLGAVPPPQELCDINTETVTQGGVAPDDFYVSTIYPTEVRVNCEWVQVTGQRMDAAIVVTSNPPSARCVLLRDLQVGDRVMVGVEGIRTIKKVESHEGGTRKENKEFAFMAAGVSSERRVELLVEQIAWEMRQIRDQGGKIVVTAGPVVIHTGGAQHLSHLVREGYVHALLGGNAIAVHDIEQATMGTSLGVDMQRGIPVRGGHRHHLKIINSVRRYGGIRQAVEAGFISKGVMYECVKNNIPYCLAGSIRDDGPLPDTEMNLVRAQSRYSELIQGADMILMLSSMLHSIGVGNMTPSGVKMVCVDINPAVVTKLSDRGSVESVGVVTDVGLFLSLLVRQLQQLTRPYSLAETL | failed
MADDKKKRNKKKKRSTGNKRKMTTEQSEAFKSITDWLILGSSPSLSSSSDDFAVNINSGSLRCGEKVVFELHSHSNRSDGFLSPSKVVERAYNNGVKVLSLTDHDTMAGVPEAVEAGRRFGIKIIPGIEISTLFGLRDSGSEEPVHILAYYGTSGPALYDELEDFLVKIRDGRFVRGREMVLKLNKLKIPLKWEHVTRIAGKDVAPGRMHVARALLEAGYVENLRQAFTKYLHDGGPAYATGTEPMAEEAVKLICKTGGVAVLAHPWALKNHVGIIRRLKDAGLHGVEVYRSDGKLEVFSELADTYNLLKLGGSDYHGKGGRNESELGSVNLPVTALQDFLNVGRPIWCEAIKATMRAFLDQPSDSNLSNILRFDKARILKGNSAWSCGKELMDRCLAIWLTSDERNSNDFEALRLKLSFVPIMSNGTCVTVGP | failed
MADETNALRQKNRELNKKIDWQKDYDREKLERDNRDLEQCKEDLLAANENLRNRIQEWENEKNKLDPRDERIKELEEEKRELEGILAQKENAEQKYNTLSVKNKQLEAELDMLNEKFEKLKNMYAGVEDFEKRQKNIKEQIVKTNPKVLGAPSNEVEELAFLERIEKGMQEFNVFYPKRLLYMFHTALKSTSLSPLSVLSGVSGTGKSELPKLYVHFGGLNFLSIAVQPTWDSPESLMGYFHAIENKFDATEFLRFFIQTTLSNNEEPYGLKEAMSIVLLDEMNLAHIELYFAEFLSKLEIKCSQETNISIKLGTGLTWELPLGDNLLFVGTMNEDESTKMLSDKVLDRAFCLNFERPKILKGKQQKPIPSNDGYLKVETFNRWINKKGDQEAKLEGKYKKLTEEINERLDACGRSIGHRVWQSMSTYMHNHPLVLHASDKNKALQFAYEECLVLKIFPKLRGVQTRNNQHLTKIQDLLKDFSVSSDFKQAMENDFKEFVFNSTNYLNNVEYEKLLKK | failed
MADFKIVISDPQAPKEETVVKVKVVGDPEIKFDENVKEGFELPILKMNSKTAEKIKAVHGVATIRMYKPGTKDKVKITGKIIVDDNIPENEVRVNAEQLVNATGTNELEGELFRARAWQIRINDDRTKLLIGLKIGDEFDGSIVGLKNVKLKIRGGSDNSGFPMRPDVMGGVKKRVLLSGPPGFHPREKGERRRKMIRGNTITEDIVQINTVIKYV | failed
MADFSRLPGPNADLWDWQLLAACRGVDSSLFFHPEGERGAARSARENSAKEVCMRCPVRAECAAHALAVREPYGVWGGLTEDEREELMGRARNRLVAATASASAGGEAAGPH | failed
MADFTLSKSLFSGKYRNASSTPGNIAYALFVLFCFWAGAQLLNLLVHAPGVYERLMQVQETGRPRVEIGLGVGTIFGLIPFLVGCLIFAVVALWLHWRHRRQ | failed
MADLINILNHFVQEQPEAVAVRHTNDELTYKQLDEESSKLAHLLQDSKKPMILYGHMSPYMIVGMIGAIKSGCGYVPIDTSVPKERVNMIIDKVQPEIIFNTSDETLEQTNAQVLKVSDIQDSQYPIVFDSQMKQNDVVYTIFTSGSTGEPKGVQIEYASLNEFAEWMVSLNKTGTGKEWLNQAPFSFDLSVMAIYPCLTSGGTLNLVDKDMIKKPKLLNEMLVQTPMNVWVSTPSFIEMCLLLPNLNEQQYSSLKQFFFCGEILPHKTAKALVERFPNSMIYNTYGPTEATVAVTSIQITEEILNQYNPLPVGVARPGTKLFATEEGELVIEGQSVSLGYLKNEEKTTAVFNFEDGVRTYHTGDKAKIEDGLWFIQGRIDFQIKLNGYRMELEEIETQLRQSKHVREAVVVPVYKNGKVIHLIGAVVPTEPVEDNLAMTTHIKHELKSRLPEYMIPRKFEWMEQLPLTSNGKLDRKKIAEVVNG | failed
MADQGLEESNPMDLSKHPSGIVPTPHSQVIYKMPPRIAAIRLVSSHREVYEPCDDSFALVDALLADRTNLIEHNPKICMEIGCGSGYVITSLILLLQNEVPGVHYLAIDTNPIATRVTKETLEAHGVNADVICADLATGLEKRLAGSVDVIVVNPPYVPTPEYEVGMEGIASAWAGGENGRTVIDKILPVVDLLLSEKGWFYLVTLTSNFPAEICLMMRKKGYASRIVVQRSTEEENLVILKFWRDKDEESQDKETSSSSFVSQFSKSLSSLMEKQWR | failed
MADQNRSEEKTVKSPNVFERVKEEIEAMGHHEKSKSRHHDKETHGTSDDIDESTPIDYVKGPGFFQRLKEEIEAIFNAVTPKRSSKK | failed
MADTHPLVTVETIVLVGLGGFAGSNLRYFVGLFFPGLQGTLLVNVCGSFALGVLVYEGLQVGALASETKLAASTGFISSFTTYSTFAVETVLTPEWAVANVVGSYALGFAGVLVGREVVRLFAGGGQ | failed
MADTITVSIVLAYFVVTLALGFFAARKIKTAEHYYGARKLFGMFVTAVAVFSGIASAFTFIGGPGLVYPMGGTVNWVIWTPVISMPLIWYLLGKRIKLITEARPVATLPDLTAARFKSDAVRFLTAVALIFGIITYLAGNVMGAGLVLTDMLGTPLELSIAIVFGIIMLYTAFGGMVASILTDFFQGLVMMVAAIIFVVFILIMTGGVENLFATIAESNPRHIDPIGVGPIWLGIMGWWWALNIGSSVQPHAVTKFFALKDYRDLKWGALVTTIAWTLACLMWFFGGYASVWVVIKGLAEAPARSDQAIFGVIAQMPVVLKAVIYAGVLAAIMSTVSGFISMGTAAVVRDIPTAIGKSLSQRGQILWGRVVTVILTVVAALFGYYGGYVVGILVTLGLGYFASMLFPLLVIGLNWKRATKEAAIITTALTVAMNLGFLVYEKVLSMSLPYGLPGYGVTFAVGIITMVLVSLITKGAALDDMDEDIRAAMSL | failed
MADTRPERRFTRIDRLPPYVFNITAELKMAARRRGEDIIDFSMGNPDGATPPHIVEKLCTVAQRPDTHGYSTSRGIPRLRRAISRWYQDRYDVEIDPESEAIVTIGSKEGLAHLMLATLDHGDTVLVPNPSYPIHIYGAVIAGAQVRSVPLVEGVDFFNELERAIRESYPKPKMMILGFPSNPTAQCVELEFFEKVVALAKRYDVLVVHDLAYADIVYDGWKAPSIMQVPGARDVAVEFFTLSKSYNMAGWRIGFMVGNKTLVSALARIKSYHDYGTFTPLQVAAIAALEGDQQCVRDIAEQYKRRRDVLVKGLHEAGWMVEMPKASMYVWAKIPEPYAAMGSLEFAKKLLNEAKVCVSPGIGFGDYGDTHVRFALIENRDRIRQAIRGIKAMFRADGLLPASSKHIHENAE | failed

Source: a protein production outcome set (Wang et al. 2014)
